Here are results for two molecules from article PMC4218953 (2014).

In general, Kd refers to the equilibrium constant for the complex coming apart. High values mean weaker binding, low ones tighter binding.

Assay [1] addresses vacant 70S ribosomes from E. coli MRE600 (E. coli). The assay is described as follows: FRET; 4°C; 70S labelled at L23 with MDCC.
The target is the same in assay [2]. Description: FRET; 25°C; 70S labelled at L23 with MDCC.
Assay [3] has the same target. The assay is described as follows: 25°C.
The target of assay [4] is Lep75-RNC (ribosome-nascent-chain complex carrying 75 N-terminal amino acids of leader peptidase) (E. coli | , UniProt P00803 1-75, f[3H]Met at the N-terminus; nascent chain bound to tRNA). The assay is described as follows: 25°C.

B1: single-labelled SecYEG(Bpy) (complex)
chain 1: MAKQPGLDFQSAKGGLGELKRRLLFVIGALIVFRIGSFIPIPGIDAAVLAKLLEQQRGTIIEMFNMFSGGALSRASIFALGIMPYICASIIIQLLTVVHPTLAEIKKEGESGRRKISQYTRYGTLVLAIFQSIGIATGLPNMPGMQGLVINPGFAFYFTAVVSLVTGTMFLMWLGEQITERGIGNGISIIIFAGIVAGLPPAIAHTIEQARQGDLHFLVLLLVAVLVFAVTFFVVFVERGQRRIVVNYAKRQQGRRVYAAQSTHLPLKVNMAGVIPAIFASSIILFPATIASWFGGGTGWNWLTTISLYLQPGQPLYVLLYASAIIFFCFFYTALVFNPRETADNLKKSGAFVPGIRPGEQTAKYIDKVMTRLTLVGALYITFICLIPEFMRDAMKVPFYFGGTSLLIVVVVIMDFMAQVQTLMMSSQYESALKKANLKGYGR
chain 2: MSANTEAQGSGRGLEAMKWVVVVALLLVAIVGNYLYRDIMLPLRALAVVILIAAAGGVALLTTKGKATVAFAREARTEVRKVIWPTRQETLHTTLIVAAVTAVMSLILWGLDGILVRLVSFITGLRF
chain 3: MYEALLVVFLIVAIGLVGLIMLQQGKGADMGASFGAGASATLFGSSGSGNFMTRMTALLATLFFIISLVLGNINSNKTNKGSEWENLSAPAKTEQTQPAAPAKPTSDIPN
modifications: BODIPY FL (maleimide derivative) on Cys87
B1: the results for the Kd in assay [1] and in assay [2] were 10 nM and 20 nM, respectively.

B2: double-labelled SecYEG(Bpy/Trp) (complex)
chain 1: MAKQPGLDFQSAKGGLGELKRRLLFVIGALIVFRIGSFIPIPGIDAAVLAKLLEQQRGTIIEMFNMFSGGALSRASIFALGIMPYICASIIIQLLTVVHPTLAEIKKEGESGRRKISQYTRYGTLVLAIFQSIGIATGLPNMPGMQGLVINPGFAFYFTAVVSLVTGTMFLMWLGEQITERGIGNGISIIIFAGIVAGLPPAIAHTIEQARQGDLHFLVLLLVAVLVFAVTFFVVFVERGQRRIVVNYAKRQQGRRVYAAQSTHLPLKVNMAGVIPAIFASSIILWPATIASWFGGGTGWNWLTTISLYLQPGQPLYVLLYASAIIFFCFFYTALVFNPRETADNLKKSGAFVPGIRPGEQTAKYIDKVMTRLTLVGALYITFICLIPEFMRDAMKVPFYFGGTSLLIVVVVIMDFMAQVQTLMMSSQYESALKKANLKGYGR
chain 2: MSANTEAQGSGRGLEAMKWVVVVALLLVAIVGNYLYRDIMLPLRALAVVILIAAAGGVALLTTKGKATVAFAREARTEVRKVIWPTRQETLHTTLIVAAVTAVMSLILWGLDGILVRLVSFITGLRF
chain 3: MYEALLVVFLIVAIGLVGLIMLQQGKGADMGASFGAGASATLFGSSGSGNFMTRMTALLATLFFIISLVLGNINSNKTNKGSEWENLSAPAKTEQTQPAAPAKPTSDIPN
modifications: BODIPY FL (maleimide derivative) on Cys87
On to B2, for which the Kd was 20 nM in assay [3] and 10 nM in assay [4].
